Experimental data as given in article PMC4894380.

Target: MqsA (Escherichia coli (strain of the protein …, UniProt Q46864 1-131))
Assay: EMSA; shift at 50-, 100- and 200-fold excess MqsA; 10 mM Tris-HCl pH 7.5, 50 mM KCl, 1 mM DTT, 1 ug poly(dI.dC), 30-50 fmol labeled probe, ambient temperature, 1 h; 6% gel, 0.5x TBE

Sequence of MqsA (Escherichia coli (Q46864 whole entry): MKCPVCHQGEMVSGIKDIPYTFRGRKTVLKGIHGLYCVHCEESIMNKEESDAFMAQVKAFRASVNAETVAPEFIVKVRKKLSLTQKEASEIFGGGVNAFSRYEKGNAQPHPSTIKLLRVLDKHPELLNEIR

B1: p-csgD native palindrome 30-mer (dsDNA)
DNA 1: ACTTAATAAAACCTTAAGGTTAACATTTTA
DNA 2: TAAAATGTTAACCTTAAGGTTTTATTAAGT
B1: binds.
